The values that follow come from patent US20240150473A1, “MODULATION OF WNT SIGNALING IN GASTROINTESTINAL DISORDERS” (Surrozen Operating, Inc., priority 2021, published 2024).

In data set [1] the test system is colon tissue markers (ZO-1, Ki67, Axin2, Cdkn3, S100A9, CD45). Nature of the data set: RNA in situ hybridization and immunohistochemistry/immunofluorescence of colon tissue, DSS model. In kind it is in vivo, mouse. As to conditions: day 10 of the DSS model. The text has this: Expression of mRNA was detected by RNAscope in situ hybridization (ACD Bio). RNAscope probes used are listed below. For colorimetric visualization, standard RNAscope® 2.5 HD Assay-Red protocol (www.acdbio.com) was followed, and images were acquired on a Leica DMi8 microscope equipped with a DFC7000T color camera. For fluorescent RNAscope in situ hybridization, standard RNAscope Multiplex Fluorescent Reagent Kit v2 Assay protocol was followed (ACD Bio Document #323100-USM) and coupled with the TSA Plus Cyanine 3 and 5 Systems. Fluorescent images were acquired with a Leica Thunder imaging system.
In brief, five-micron thick formalin fixed paraffin embedded tissue sections on slides were deparaffinized followed by citrate buffer (pH 6) antigen retrieval in a steamer. Slides were then washed thoroughly in tap water followed by 1× wash in PBST. Subsequently, tissue sections were blocked with serum free protein block (Agilent, X090930-2) for one hour at room temperature followed by incubation in primary antibodies. After primary antibody incubation, tissue sections were washed in 0.1% TX-100 in PBS (PBST) at least three times followed by incubation in secondary antibody. Afterwards, tissue sections were washed with PBST, and coverslips were mounted with Vectashield Vibrance antifade mounting medium with DAPI (Vector Laboratories, H-1800).

Data set [2] deals with DSS induced acute colitis in C57BL6/J mice. Nature of the data set: DSS induced acute colitis model. The class given is in vivo, mouse. As to conditions: IP twice weekly or daily starting on day 4 of DSS. The method, then:
7- to 8-week-old female C57BL6/J mice were fed with 4% (wt/vol) Dextran Sulfate Sodium (DSS, MP Biomedicals, molecular weight 36-50 kDa, Ref #160110) in drinking water from day 1 to day 7 to induce colitis and were switched to 1% DSS from day 8. […] Animals were terminated on day 10, allowing a 6-day course of protein treatment, and the colon was harvested for histology and RT-qPCR. […] The disease activity index (DAI) was calculated based on the average score of weight loss, stool consistency and the degree of intestinal bleeding (Wirtz Stefan et al., 2017). Scoring system by grading was on a scale of 0 to 4 using the following parameters: loss of weight (0, 0-1%; 1, 1-6%; 2, 6-12%; 3, 12-18%; 4, >18%), stool consistency (0, normal; 1, soft but still formed; 2, soft; 3, very soft, wet; 4, watery diarrhea) and intestine bleeding (0-1, negative hemoccult; 2, positive hemoccult; 3, blood traces in stool visible; 4, gross rectal bleeding).
Small intestine and colon were extracted and, after removing fecal content, weighted and length measured. The desired small intestine segments (duodenum, jejunum, ileum) and colon segments (ascending, transverse and descending colon) were cut out and fixed directly in 10% neutral buffered formalin (NBF) overnight. Tissues were then transferred to 70% ethanol before paraffin embedding. Paraffin tissue blocks were then sectioned to […] thickness and stained with hematoxylin and eosin (H&E) for histology analysis. Pathology reading was performed by an independent pathologist.
[…] Groups of mice were either untreated, treated with an isotype control antibody (anti-GFP), or treated with the indicated engineered Wnt agonist once on day 4 or twice on day 4 and 7. […]
The 123 mice total were grouped: (Day3=13, day4=13, day5=26, day6=24, day7=26, day10=21), with 91 used for histology endpoints, and 21 for scRNA-seq (group eliminated because of machinery). Daily food intake, BW, fecal score, and occult blood were measured. […]

Data set [3] concerns the target T1, Lrp6E3E4 domain (Homo sapiens, UniProt O75581).
T1 sequence (O75581 631-1244 limits assumed): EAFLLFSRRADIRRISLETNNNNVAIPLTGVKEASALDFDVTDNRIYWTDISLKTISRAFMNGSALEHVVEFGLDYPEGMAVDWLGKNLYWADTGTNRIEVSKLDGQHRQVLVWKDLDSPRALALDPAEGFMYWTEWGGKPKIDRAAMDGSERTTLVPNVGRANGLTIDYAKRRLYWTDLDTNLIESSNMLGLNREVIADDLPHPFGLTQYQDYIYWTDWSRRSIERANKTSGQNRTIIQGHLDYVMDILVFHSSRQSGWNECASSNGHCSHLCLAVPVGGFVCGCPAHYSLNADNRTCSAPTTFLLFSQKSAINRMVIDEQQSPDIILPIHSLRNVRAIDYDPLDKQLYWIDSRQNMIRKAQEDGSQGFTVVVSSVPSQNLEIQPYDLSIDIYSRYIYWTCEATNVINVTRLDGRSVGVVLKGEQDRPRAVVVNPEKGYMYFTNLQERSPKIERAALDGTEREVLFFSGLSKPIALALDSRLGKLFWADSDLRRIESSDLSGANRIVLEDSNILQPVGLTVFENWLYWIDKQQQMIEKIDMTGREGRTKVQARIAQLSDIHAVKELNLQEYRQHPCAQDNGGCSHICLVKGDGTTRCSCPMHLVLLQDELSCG
Nature of the data set: Bio-layer interferometry (Octet) binding kinetics of VHH26 constructs. Particulars: 1:1 binding model. How it is done: These six humanized VHH26 variants H1 to H6 and the parental VHH26 were transiently expressed in Expi293 cells (at 80 mL scale) with a C-terminal hexa-histidine tag. Proteins were purified using His-Complete resin (Roche, USA) following standard procedures. Expression levels and homogeneity of VHH26 and its humanized variants were analyzed by SDS-PAGE and SEC (size-exclusion chromatography). […] Biotinylated LRP6E3E4 diluted to 50 nM in the running buffer (PBS, 0.05% Tween-20, 0.5% BSA, pH 7.2) were captured to the SA biosensor followed by dipping into wells containing the indicated VHH26 proteins at different concentrations in running buffer or into a well with only running buffer as a reference channel. KD for each binder was calculated by Octet System software, based on fitting to a 1:1 binding model. Kinetics values (Kon, Koff, KD) from each experiment was calculated from seven technical replicates of different concentrations of the molecule tested with Octet Data Analysis 9.0 (PALL ForteBio, Fremont, CA).
Central fractions of each of these peaks were examined by Octect-BLI for their ability interact with Lrp6. Kinetics parameters such as kon, koff, and KD for interaction between VHH26 constructs and Lrp6E3E4 domain are listed in Table 2. Analyses of these parameters reveal that the binding affinity towards Lrp6 is least affected in the case of the VHH26-H5 humanized variant compared to the parent VHH26 (Table 2; FIG. 3B).

Where [4] appears, read: SEC fraction C1/G1 (parental D3).
The mark [5] stands for this setting: SEC fraction C3/G3 (parental D3).

B1: RSPO2: R-spondin 2, ligand that amplifies WNT signals (protein, UniProt Q6UXX9 22-243, looked up)
R-spondin-2: QGNRWRRSKRASYVSNPICKGCLSCSKDNGCSRCQQKLFFFLRREGMRQYGECLHSCPSGYYGHRAPDMNRCARCRIENCDSCFSKDFCTKCKVGFYLHRGRCFDECPDGFAPLEETMECVEGCEVGHWSEWGTCSRNNRTCGFKWGLETRTRQIVKKPVKDTILCPTIAESRRCKMTMRHCPGGKRTPKAKEKRNKKKKRKLIERAQEQHSVFLATDRANQ
For B1, the “Ki67 expression in duodenum and colon” value in data set [1] is on record as “expansion of Ki67 expression”. Also, the “repair of damaged colon epithelium / colon histology” value in data set [2] is “less significant as compared to the effect of R2M3-26”.

B2: VHH26 (parental): parental camelid LRP6 binding VHH, SEQ ID NO: 25 (protein)
VHH: DVQLVESGGGLVQAGGSLRLACAGSGRIFAIYDIAWYRHPPGNQRELVAMIRPVVTEIDYADSVKGRFTISRNNAMKTVYLQMNNLKPEDTAVYYCNAKRPWGSRDEYWGQGTQVTVSS
modifications: VHH26 (parental)
As for B2, the results for the koff in data set [3] (setting [4]) and in data set [3] (setting [5]) were 1.77E−02 and 1.82E−02, respectively. Besides, the kon is recorded as 8.10E+05 in data set [3] (setting [4]) and 1.05E+06 in data set [3] (setting [5]).

B3: VHH26-H4: humanized variant of LRP6 binding VHH26, SEQ ID NO: 22 [VHH26-H4] (protein)
VHH: EVQLVESGGGLVQPGGSLRLSCAGSGRIFAIYDIAWYRQAPGKGRELVAMIRPVVTEIDYADSVKGRFTISRDNSKNTVYLQMNSLRAEDTAVYYCNAKRPWGSRDEYWGQGTTVTVSS
modifications: VHH26_H4
Consider B3, for which, in data set [3] (setting [4]), the koff turned out to be 9.51E−02 and the kon is reported as 1.44E+05. In data set [3] (setting [5]), the koff turned out to be 5.56E−03 and the kon came to 2.90E+04.

B4: VHH26-H3: humanized variant of LRP6 binding VHH26, SEQ ID NO: 21 (protein)
VHH: EVQLVESGGGLVQPGGSLRLSCAGSGRIFAIYDIAWYRQAPGKGREWVAMIRPVVTEIDYADSVKGRFTISRDNSKNTVYLQMNSLRAEDTAVYYCNAKRPWGSRDEYWGQGTTVTVSS
modifications: VHH26_H3
For the molecule B4, the koff in data set [3] (setting [4]) is 5.22E−02; in data set [3] (setting [5]), 7.75E−03. The kon in data set [3] (setting [4]) was found to be 1.63E+04; in data set [3] (setting [5]), 1.84E+04.

B5: VHH26-H2: humanized variant of LRP6 binding VHH26, SEQ ID NO: 20 (protein)
VHH: EVQLVESGGGLVQPGGSLRLSCAGSGRIFAIYDIAWYRQAPGKGLEWVAMIRPVVTEIDYADSVKGRFTISRDNSKNTVYLQMNSLRAEDTAVYYCNAKRPWGSRDEYWGQGTTVTVSS
modifications: VHH26_H2
Turning to B5, the results for the koff in data set [3] (setting [4]) and in data set [3] (setting [5]) were 6.53E−02 and 6.84E−02, respectively. Further, the kon was found to be 1.48E+05 in data set [3] (setting [4]) and 2.44E+05 in data set [3] (setting [5]).

B6: VHH26-H1: humanized variant of LRP6 binding VHH26, SEQ ID NO: 19 (protein)
VHH: EVQLLESGGGLVQPGGSLRLSCAASGRIFAIYDIAWVRQAPGKGLEWVSMIRPVVTEIDYADSVKGRFTISRDNSKNTLYLQMNSLRAEDTAVYYCAKKRPWGSRDEYWGQGTTVTVSS
modifications: VHH26_H1
For B6, in data set [3] (setting [5]), the koff was determined as 3.98E−03 and the kon is 1.42E+04.

B7: VHH26-H5: humanized variant of LRP6 binding VHH26, SEQ ID NO: 23 (protein)
VHH: EVQLVESGGGLVQPGGSLRLSCAGSGRIFAIYDIAWYRQAPGKGREWVAMIRPVVTEIDYADSVKGRFTISRDNSKKTVYLQMNSLRAEDTAVYYCNAKRPWGSRDEYWGQGTTVTVSS
modifications: VHH26_H5
For B7, the koff in data set [3] (setting [4]) is listed as 1.77E−02; in data set [3] (setting [5]), 1.47E−02. Besides, the results for the kon in data set [3] (setting [4]) and in data set [3] (setting [5]) were 4.28E+05 and 1.35E+05, respectively.

B8: VHH26-H6: humanized variant of LRP6 binding VHH26, SEQ ID NO: 24 [VHH26-H6] (protein)
VHH: EVQLVESGGGLVQPGGSLRLSCAGSGRIFAIYDIAWYRQAPGKGRELVAMIRPVVTEIDYADSVKGRFTISRDNSKKTVYLQMNSLRAEDTAVYYCNAKRPWGSRDEYWGQGTTVTVSS
modifications: VHH26_H6
Take B8: in data set [3] (setting [4]), the koff is 3.11E−02 and the kon stood at 4.52E+04. Moreover, in data set [3] (setting [5]), the koff was found to be 8.36E−03 and the kon is on record as 1.72E+04.
